What was measured:
human Sdc2 [1] = target: T1, human Sdc2 (human, UniProt P34741 19-144, limits assumed); experiment: Octet tandem binning; saturating Ab m3 19844-R3-P1-C02 (row boxed, self-self >0.09)
T1 construct: Antigen of the Octet tandem binning, loaded on biosensors at 100 nM; also called huSdc2; hSdc2
Experimental: (§1) These studies were performed in a tandem binning assay format with human Sdc2, used as the antigen (concentration of 100 nM). Antigen loaded biosensors were dipped in a saturating solution of antibody (25 μg/ml) for 240 seconds followed by a competing antibody at 5 μg/ml for 180 seconds. […] Since saturation is not possible to achieve saturation with these clones, they are removed in as ligands, but retained in the analyte orientation in the analysis. A table summarizing the results of epitope binning of the 18 antibodies against huSdc2 is illustrated in FIG. 30. Data is normalized, where the raw binding signal from Competing Ab for a given Saturating Ab is divided by binding in the absence a […] (“buffer”). The threshold determining the matrix color is adjustable and dependent upon Ag-Ab binding. […] Table rows are based on similar looking binding profiles. Note that the coloration/cutoff is subjective, yellow color added to represent injections with ambiguous or very weak sandwiching signals. FIG. 31 illustrates a clustergram of the epitope binning studies, which was generated from the normalized binning data by importation into the statistical computing program R (The R Project for Statistical Computing: at r-project.org) and generation of a clustergram with the pvclust package.

human Sdc2 [2] = target: T1, human Sdc2; experiment: Octet tandem binning; saturating Ab m6 19838-20H19-AA (marked non-binding ligand)
Experimental: as §1

[3] = target: human Sdc2 on Human Umbilical Vein Endothelial Cells (HUVEC) (human, UniProt P34741 19-201); experiment: cell-based or functional assay
human Sdc2 [4] = target: T1, human Sdc2; experiment: Octet tandem binning; saturating Ab m4 19844-R4M-P1-A10
Experimental: as §1

human Sdc2 [5] = target: T1, human Sdc2; experiment: Octet tandem binning; saturating Ab f6 19844-R3-P3-E09
Experimental: as §1

human Sdc2 [6] = target: T1, human Sdc2; experiment: Octet tandem binning; saturating Ab f8 19844-R4M-P2-C02
Experimental: as §1

human Sdc2 [7] = target: T1, human Sdc2; experiment: Octet BLI, heading box over the sensorgram
human Sdc2 [8] = target: T1, human Sdc2; experiment: Octet tandem binning; saturating Ab f7 19844-R3-P3-A12
Experimental: as §1

human Sdc2 [9] = target: T1, human Sdc2; experiment: Octet tandem binning; saturating Ab m5 19844-R4M-P3-A12 (row boxed, self-self >0.09)
Experimental: as §1

human Sdc2 [10] = target: T1, human Sdc2; experiment: Octet tandem binning; Buffer in place of a saturating Ab
Experimental: as §1

human Sdc2 [11] = target: T1, human Sdc2; experiment: Octet tandem binning; saturating Ab f9 19838-6-E17-A
Experimental: as §1

human Sdc2 [12] = target: T1, human Sdc2; experiment: Octet tandem binning; saturating Ab f3 19838-6N03-A
Experimental: as §1

human Sdc2 [13] = target: T1, human Sdc2; experiment: Octet tandem binning; saturating Ab f5 19844-R4M-P3-E06
Experimental: as §1

human Sdc2 [14] = target: T1, human Sdc2; experiment: Octet tandem binning; saturating Ab f4 19844-R3-P3-C11
Experimental: as §1

human Sdc2 [15] = target: T1, human Sdc2; experiment: Octet tandem binning; saturating Ab f10 19838-10-I12-A
Experimental: as §1

pig Sdc2 [16] = target: T2, pig Sdc2 (pig, UniProt F1S0L5 19-145); experiment: Octet BLI, HIS1K sensor loaded with pigSdc2, antibody as sample; Full R2 0.9988
T2 construct: also called pSdc2
Experimental: (§2) In order to characterize the binding affinity and in vivo/in vitro functional ability of the twelve clones generated by the previous studies and disclosed in Table 1, a series of assays were performed on each clone. These assays measured the affinity of each antibody clone for human, pig, and mouse Sdc2 using an Octet® binding assay system. Additionally, the functional ability of each clone to inhibit VEGFA-driven permeability (see Santiago, et al. (2021) J Am Heart Assoc. 10(18):e020521) was assessed in two therapeutic settings: a “prevention” study in which three concentrations of antibody (5 μg/ml, 10 μg/ml, 15 μg/ml, 20 μg/ml, and/or 40 μg/ml depending on the study) were pre-incubated for an hour before administration of 100 ng/ml of VEGFA, and a “treatment” study in which 3 hours of pre-treatment with 100 ng/ml VEGFA were followed by treatment with antibody at 20 μg/ml or 40 μg/ml. Results are shown for 8-G17 in FIG. 8 and FIG. 9, 20-H19-AB in FIG. 10 and FIG. 11 (FIG. 12 for monkey ECs), R3-P3-C11 in FIG. 13 and FIG. 14, R4M-P3-E06 in FIG. 15 and FIG. 16, R3-P3-E09 in FIG. 17 and FIG. 18, R3-P1-C02 in FIG. 19 and FIG. 20, R3-P3-A12 in FIG. 21 and FIG. 22, R4M-P3-A12 in FIG. 23 and FIG. 24, and R4M-P1-A10 in FIG. 25 and FIG. 26.

human Sdc2 [17] = target: T1, human Sdc2; experiment: Kd (human Sdc2), summary table of the mAbs
human Sdc2 [18] = target: T1, human Sdc2; experiment: Octet tandem binning; saturating Ab f12 19838-6-N03-A
Experimental: as §1

human Sdc2 [19] = target: T1, human Sdc2; experiment: Octet tandem binning; saturating Ab m7 19844-R3-P1-E07
Experimental: as §1

human Sdc2 [20] = target: T1, human Sdc2; experiment: Octet BLI, HIS1K sensor loaded with huSdc2, antibody as sample; Full R2 0.998
pig Sdc2 [21] = target: T2, pig Sdc2; experiment: Octet BLI, HIS1K sensor loaded with pigSdc2, antibody as sample; Full R2 0.9988; heading box reads Pig Sdc2 (Kd~ low femtomolar)
Experimental: as §2

human Sdc2 [22] = target: T1, human Sdc2; experiment: Octet tandem binning; saturating Ab m8 19844-R4M-P1-B01 (marked non-binding ligand)
Experimental: as §1

human Sdc2 [23] = target: T1, human Sdc2; experiment: Octet tandem binning; saturating Ab m2 19838-8G17-A
Experimental: as §1

human Sdc2 [24] = target: T1, human Sdc2; experiment: Octet tandem binning; saturating Ab f11 19838-20-H19-A
Experimental: as §1

pig Sdc2 [25] = target: T2, pig Sdc2; experiment: Octet BLI, heading box over the sensorgram
Experimental: as §2

human Sdc2 [26] = target: T1, human Sdc2; experiment: Octet BLI, heading box over the sensorgram; remark: listed apart in the source
Experimental: as §2

human Sdc2 [27] = target: T1, human Sdc2; experiment: Octet BLI, HIS1K sensor loaded with huSdc2, antibody as sample; Full R2 0.9968
human Sdc2 [28] = target: T1, human Sdc2; experiment: Octet tandem binning; saturating Ab m1 19838-20H19-AB
Experimental: as §1

pig Sdc2 [29] = target: T2, pig Sdc2; experiment: Octet BLI, HIS1K sensor loaded with pigSdc2, antibody as sample; Full R2 0.997

T1 sequence (P34741 19-144 limits assumed): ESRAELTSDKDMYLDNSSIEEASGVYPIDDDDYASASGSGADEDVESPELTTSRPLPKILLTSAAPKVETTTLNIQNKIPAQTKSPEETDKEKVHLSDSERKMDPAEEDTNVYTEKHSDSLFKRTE
human Sdc2 on Human Umbilical Vein Endothelial Cells (HUVEC), sequence (P34741 19-201 limits assumed): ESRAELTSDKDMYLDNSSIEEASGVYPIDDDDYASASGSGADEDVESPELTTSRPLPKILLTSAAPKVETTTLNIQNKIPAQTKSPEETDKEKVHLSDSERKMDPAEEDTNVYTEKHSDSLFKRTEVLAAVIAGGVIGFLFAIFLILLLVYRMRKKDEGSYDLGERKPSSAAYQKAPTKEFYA

| raw competing-Ab binding signal (human Sdc2 [1]) | raw competing-Ab binding signal (human Sdc2 [2]) | % Inhibition of VEGFA-induced permeability at 24hrs (20ug/ml) [3] | raw competing-Ab binding signal (human Sdc2 [4]) | raw competing-Ab binding signal (human Sdc2 [5]) | raw competing-Ab binding signal (human Sdc2 [6]) | raw competing-Ab binding signal (human Sdc2 [8]) | raw competing-Ab binding signal (human Sdc2 [9]) | raw competing-Ab binding signal (human Sdc2 [10]) | raw competing-Ab binding signal (human Sdc2 [11]) | raw competing-Ab binding signal (human Sdc2 [12]) | raw competing-Ab binding signal (human Sdc2 [13]) | raw competing-Ab binding signal (human Sdc2 [14]) | raw competing-Ab binding signal (human Sdc2 [15]) | Kd (human Sdc2 [17]) | raw competing-Ab binding signal (human Sdc2 [18]) | raw competing-Ab binding signal (human Sdc2 [19]) | raw competing-Ab binding signal (human Sdc2 [22]) | raw competing-Ab binding signal (human Sdc2 [24]) | Binder | also measured |
| --- | --- | --- | --- | --- | --- | --- | --- | --- | --- | --- | --- | --- | --- | --- | --- | --- | --- | --- | --- | --- |
| 0.0781 | 0.192 | 90% | 0.0759 | -0.0179 | 0.0763 | -0.102 | 0.173 | 0.197 | 0.171 | -0.0355 | 0.158 | -0.0618 | 0.0503 | 0.37 nM | 0.0082 | 0.214 | 0.161 | 0.0503 | 20-H19-AB (antibody, mouse IgG1, kappa, V domains shown, PentaMice hybridoma clone, made recombinantly in CHO cells; also called 20-H1-AB) VH: EVQLVESGGGLVQPKGSLKLSCAASGFTFNIYAMHWVRQAPGKGLEWIARIGSKSSYYATYYADSVKDRFTISRDDSQSMLYLQTNNLKTEDTAMYYCVSGKGDWGQGTTLTVSS VL: not shown | Kd (human Sdc2 [7]): ~0.37 nM; koff (pig Sdc2 [16]): < 1e-07 s⁻¹; kon (pig Sdc2 [16]): 70700 M⁻¹ s⁻¹; Kd (human Sdc2 [20]): 0.369 nM; koff (human Sdc2 [20]): 3.18e-05 s⁻¹; kon (human Sdc2 [20]): 86200 M⁻¹ s⁻¹; Kd (pig Sdc2 [21]): < 0.001 nM; raw competing-Ab binding signal (human Sdc2 [23]): -0.0786 |
| 0.784 | 0.891 | 100% | 0.805 | 0.761 | 0.777 | 0.636 | 0.858 | 0.83 | 0.79 | 0.0574 | 0.954 | 0.776 | 0.113 | 0.46 nM | 0.0566 | 0.871 | 0.827 | 0.241 | 8-G17-A (antibody, V domains shown, PentaMice hybridoma clone, made recombinantly in CHO cells) VH: EVQLVESGGGLVKPGGSLKLSCEASGITFSNYVMSWVRQTPEKRLEWVATISDGGSYTYYPDNLKGRFTISRDNAKNNLYLQMSHLKSEDTAMYYCVRDRYDYDGRVYAMDYWGQGTSVTVSS VL: DVVMTQTPLSLPVSLGDQASISCRSSQSLVHSNGNTYLHWYLQKPGQSPKLLIYKVSNRFSGVPDRFSGSGSGTDFTLKITRVEAEDLGVYFCSQSTHVPWTFGGGTKLEIKR | Kd (pig Sdc2 [25]): ~0.45 nM; Kd (human Sdc2 [26]): ~0.46 nM; Kd (human Sdc2 [27]): 0.466 nM; koff (human Sdc2 [27]): 0.000235 s⁻¹; kon (human Sdc2 [27]): 505000 M⁻¹ s⁻¹; raw competing-Ab binding signal (human Sdc2 [28]): 0.16; Kd (pig Sdc2 [29]): 0.455 nM; koff (pig Sdc2 [29]): 0.000195 s⁻¹; kon (pig Sdc2 [29]): 428000 M⁻¹ s⁻¹ |

Source: patent US20250282885A1 (VST BIO, published 2025)
